PMC2603606
Each block holds one substance with its values, some of them ahead of it.

Columns and labels:
Test in all cases: crystal structure
[1] = molecular target: NITR11 (N50D) V region protein (channel catfish (Ictalurus punctatus))
[2] = molecular target: NITR11 V domain and membrane proximal stalk region, disulfide-linked homodimer (channel catfish (Ictalurus punctatus))
[3] = molecular target: NITR10 (D50N) V region protein (channel catfish (Ictalurus punctatus))
[4] = molecular target: NITR10 V region protein (novel immune-type receptor 10, Ig V domain) (channel catfish (Ictalurus punctatus))
[5] = molecular target: NITR11 V region protein (novel immune-type receptor 11, Ig V domain) (channel catfish (Ictalurus punctatus))

Substance: NITR10 (D50N) V region protein (domain or fragment)
- stoichiometry N [3]: 2

Substance: NITR10 V region protein (novel immune-type receptor 10, Ig V domain) (domain or fragment)
- stoichiometry N [4]: 2

Substance: NITR11 V region protein (novel immune-type receptor 11, Ig V domain) (domain or fragment)
- stoichiometry N [5]: 2

Next, values leading:

- stoichiometry N [1]: 2
Substance: NITR11 (N50D) V region protein (domain or fragment)

- stoichiometry N [2]: 2
Substance: NITR11 V domain and membrane proximal stalk region, disulfide-linked homodimer (domain or fragment)
